Measurements from paper PMC9910054.

Molecular target: Mycobacterium tuberculosis chorismate mutase variant V55D (Mycobacterium tuberculosis)
Experiment: crystal structure; sitting drop vapor diffusion, 20 °C; protein 44 mg/mL in 20 mM Bis Tris propane, pH 7.5, 150 mM NaCl; reservoir 0.2 M zinc acetate dihydrate, 10% w/v PEG 3000, 0.1 M sodium acetate, pH 4.5; space group P22(1)2(1); 2.1 Å

“Mycobacterium tuberculosis chorismate mutase variant V55D (enzyme)” was tested, and the stoichiometry N was 2.
